Blank lines part the entries; values can stand above or below the binder they belong to.
Tests used:
human CLDN18.2 = target: T1, human CLDN18.2 (human); assay: flow cytometry, NUGC-4 cells highly expressing human CLDN18.2
T1 construct: On NUGC-4 cells highly expressing human CLDN18.2 (JCRB, JCRB0834); also called Claudin 18.2; NUGC-4 cells
Description: In this example, the binding ability of the binding proteins to cells highly expressing specific tumor antigens was determined by flow cytometry FACS. Briefly, a cell suspension was collected, and the cell density was adjusted to 2×10⁶ cells/mL. […] Then, binding proteins diluted in a 3-fold gradient at a total of 8 concentrations that were 2 times the final concentrations were added at 50 μL/well, and the mixture was mixed well. hIgG1 iso (CrownBio, #C0001) was used as an isotype control. The cells were incubated at 4° C. for 2 h away from light. Then, the cells in each well were then rinsed twice with 100 μL of pre-cooled PBS buffer and centrifuged at 500 g at 4° C. for 5 min, and then the supernatant was discarded. […] Then, the cells in each well were then rinsed twice with 100 μL of pre-cooled PBS buffer and centrifuged at 500 g at 4° C. for 5 min, and then the supernatant was discarded. Finally, a pre-cooled FACS buffer (PBS buffer containing 0.5% BSA) was added at 200 μL/well to resuspend the cells. Fluorescence signal values were read using an ACEA NovoCyte flow cytometer or a BD FACS CANTOII flow cytometer, and the data were processed and analyzed using FlowJo v10 (FlowJo, LLC) software.
In this example, the binding ability of the antibodies targeting CLDN18.2 to NUGC-4 cells highly expressing human CLDN18.2 (JCRB, JCRB0834) was determined.

human OX40 = target: T2, human OX40 (human, UniProt P43489 29-277); assay: flow cytometry, CHO-K1/hu OX40 cells
T2 construct: whole, on cells; Expressed on CHO-K1/hu OX40 cells (GenScript, #M00561); also called CD134; TNFRSF4
T2 sequence (looked up): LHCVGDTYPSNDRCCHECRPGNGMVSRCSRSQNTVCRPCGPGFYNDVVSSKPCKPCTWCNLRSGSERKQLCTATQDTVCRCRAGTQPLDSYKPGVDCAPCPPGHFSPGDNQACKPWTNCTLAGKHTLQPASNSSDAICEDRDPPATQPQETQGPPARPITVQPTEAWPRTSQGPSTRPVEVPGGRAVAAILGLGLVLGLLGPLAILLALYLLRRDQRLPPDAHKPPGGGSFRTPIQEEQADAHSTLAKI
Description: The antibody binding assay at the cellular level was performed using a CHO-K1 cell line CHO-K1/hu OX40 (GenScript, #M00561) highly expressing human OX40. Briefly, the CHO-K1/hu OX40 cells were digested and resuspended in an F12K complete medium, and the cell density was adjusted to 1×10⁶ cells/mL. […] The cells were incubated at 4° C. for 1 h away from light. Thereafter, the cells in each well were rinsed twice with 100 μL of pre-cooled PBS, and centrifuged at 500 g at 4° C. for 5 min, and then the supernatant was discarded. […] The plate was incubated away from light at 4° C. for 30 min. The cells in each well were rinsed twice with 100 L of pre-cooled PBS, and centrifuged at 500 g at 4° C. for 5 min, and then the supernatant was discarded. Finally, a pre-cooled PBS was added at 200 μL/well to resuspend the cells. Fluorescence signal values were read using a BD FACS CANTOII flow cytometer or an ACEA NovoCyte flow cytometer, and the data were processed and analyzed using FlowJo v10 (FlowJo, LLC) software.

human PD-L1 = target: T3, human PD-L1 (human, UniProt Q9NZQ7 19-290); assay: flow cytometry, CHO-K1/hPD-L1 cells
T3 construct: whole, on cells; Expressed on CHO-K1/hPD-L1 cells (GenScript, M00543); also called CD274; B7-H1

human PSMA = target: T4, human PSMA (human, UniProt Q04609 1-750); assay: flow cytometry, LNCaP cells highly expressing human PSMA
T4 construct: whole, on cells; On LNCaP cells highly expressing human PSMA (Nanjing Cobioer, CBP60364); also called FOLH1; glutamate carboxypeptidase 2
T4 sequence (Q04609 whole entry): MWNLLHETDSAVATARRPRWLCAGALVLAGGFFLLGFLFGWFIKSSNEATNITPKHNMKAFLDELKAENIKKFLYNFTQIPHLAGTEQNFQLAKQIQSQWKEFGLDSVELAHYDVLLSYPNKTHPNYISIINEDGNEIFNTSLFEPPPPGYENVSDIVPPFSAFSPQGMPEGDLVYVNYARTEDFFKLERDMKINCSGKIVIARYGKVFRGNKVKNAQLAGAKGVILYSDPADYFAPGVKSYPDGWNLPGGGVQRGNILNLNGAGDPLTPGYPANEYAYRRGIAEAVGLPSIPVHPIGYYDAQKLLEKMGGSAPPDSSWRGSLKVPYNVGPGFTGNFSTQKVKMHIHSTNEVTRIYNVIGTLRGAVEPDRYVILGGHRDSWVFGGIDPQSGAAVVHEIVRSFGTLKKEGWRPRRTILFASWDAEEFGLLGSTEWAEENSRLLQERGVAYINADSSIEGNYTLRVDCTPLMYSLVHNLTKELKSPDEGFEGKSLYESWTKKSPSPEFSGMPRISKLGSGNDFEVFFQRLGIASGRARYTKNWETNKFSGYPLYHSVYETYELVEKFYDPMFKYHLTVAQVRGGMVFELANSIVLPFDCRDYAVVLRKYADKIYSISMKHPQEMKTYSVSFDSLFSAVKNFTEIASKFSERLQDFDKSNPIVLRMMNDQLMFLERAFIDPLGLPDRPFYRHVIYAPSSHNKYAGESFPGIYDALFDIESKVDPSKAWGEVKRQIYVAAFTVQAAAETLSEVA

T3 sequence (Q9NZQ7 19-290): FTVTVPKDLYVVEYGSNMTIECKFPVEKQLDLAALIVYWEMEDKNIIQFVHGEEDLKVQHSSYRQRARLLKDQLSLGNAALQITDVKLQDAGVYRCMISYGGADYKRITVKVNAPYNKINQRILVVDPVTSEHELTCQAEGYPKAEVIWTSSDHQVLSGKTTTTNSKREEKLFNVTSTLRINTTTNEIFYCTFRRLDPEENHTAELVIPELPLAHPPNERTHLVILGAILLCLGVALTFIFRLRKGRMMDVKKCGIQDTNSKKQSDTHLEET

B1: PR002726, anti-CLDN18.2 monoclonal antibody 13E6F4 hIgG1 (antibody, V domains shown)
VH: EVQLLESGGGLVQPGGSLRLSCAASGFTFSSFVMSWVRQAPGKGLEWVSTISGSGRSTYYADSVKGRFTISRDNSKNTLHLQMNSLRAEDTAVYYCAKDAAAAGTKFDYWGQGTLVTVSS
VL: EIVLTQSPATLSLSPGERATLSCRASQSVSSYLAWYQQKPGQAPRLLIYDASNRATGIPARFSGSGSGTDFTLTISSLEPEDFAVYYCQQRSNWPLTFGGGTKVEIKR
notes: Parent monoclonal antibody of the CLDN18.2 end; hIgG1
binding result (human CLDN18.2): binds

B2: PR002067, anti-OX40 heavy-chain antibody R1026P079E12 (antibody, human IgG1, V domains shown)
VH: EVQLLESGGGLVQPGGSLRLSCAASGFTFSSYAMSWVRQAPGKGLEWVSAISGRGGSTFYADSVRGRFTISRDNSKNTLYLQMNSLRAEDTAMYYCVDGTTGTTDVDYWGQGTLVTVSS
notes: Fully human heavy-chain antibody (HCAb), heavy chain dimer without light chains; also called anti-OX40 HCAb antibody
binding result (human OX40): binds

Other lines, results leading:

binding result (human PD-L1): binds
binding result (human OX40): binds
B3: PR003789 (bispecific antibody, human IgG1, kappa, L234A L235A)
light: DIQMTQSPSTLSASVGDRVTVTCRASQSIYIWLAWYQQKPGKAPNLLIYKASSLETGVPSRFSGSGSGTEFTLTISSLQPDDFATYYCQQYYGSSRTFGQGTKVEIKRTVAAPSVFIFPPSDEQLKSGTASVVCLLNNFYPREAKVQWKVDNALQSGNSQESVTEQDSKDSTYSLSSTLTLSKADYEKHKVYACEVTHQGLSSPVTKSFNRGEC
heavy: EVQLVESGGGLVQPGGSLRLSCAASGFTFSSYWMSWVRQAPGKGLEWVANIKQEGSEKYYVDSVKGRFTISRDNAKNSLYLQMNSLRAEDTAVYYCARDRAVAGAFDIWGQGTMVTVSSASTKGPSVFPLAPSSKSTSGGTAALGCLVKDYFPEPVTVSWNSGALTSGVHTFPAVLQSSGLYSLSSVVTVPSSSLGTQTYICNVNHKPSNTKVDKKVEPKSCDKTHTCPPCPAPEAAGGPSVFLFPPKPKDTLMISRTPEVTCVVVDVSHEDPEVKFNWYVDGVEVHNAKTKPREEQYNSTYRVVSVLTVLHQDWLNGKEYKCKVSNKALGAPIEKTISKAKGQPREPQVYTLPPSREEMTKNQVSLTCLVKGFYPSDIAVEWESNGQPENNYKTTPPVLDSDGSFFLYSKLTVDKSRWQQGNVFSCSVMHEALHNHYTQKSLSLSPGAEPKSSDKTHTPPPPPEVQLLESGGGLVQPGGSLRLSCAASGFTFSSYAMSWVRQAPGKGLEWVSAISGRGGSTFYADSVRGRFTISRDNSKNTLYLQMNSLRAEDTAMYYCVDGTTGTTDVDYWGQGTLVTVSS
notes: Structure 1, IgG-VH; PD-L1 Fab from PR000265, OX40 VH from PR002067; linker H1_15; human IgG1 (AAG); also called PD-L1×OX40 bispecific antibody molecule

binding result (human OX40): binds
binding result (human PSMA): binds
B4: PR004284 (bispecific antibody, human IgG1, kappa, L234A L235A)
light: DIQMTQSPSSLSASIGDRVTITCRASQSINSYLNWYQQKPGKAPKLLIYTASSLLSGVPSRFSASGSWTDFSLTISSLQPEDFATYYCQQSFSTPYTFGQGTNLEIKRTVAAPSVFIFPPSDEQLKSGTASVVCLLNNFYPREAKVQWKVDNALQSGNSQESVTEQDSKDSTYSLSSTLTLSKADYEKHKVYACEVTHQGLSSPVTKSFNRGEC
heavy: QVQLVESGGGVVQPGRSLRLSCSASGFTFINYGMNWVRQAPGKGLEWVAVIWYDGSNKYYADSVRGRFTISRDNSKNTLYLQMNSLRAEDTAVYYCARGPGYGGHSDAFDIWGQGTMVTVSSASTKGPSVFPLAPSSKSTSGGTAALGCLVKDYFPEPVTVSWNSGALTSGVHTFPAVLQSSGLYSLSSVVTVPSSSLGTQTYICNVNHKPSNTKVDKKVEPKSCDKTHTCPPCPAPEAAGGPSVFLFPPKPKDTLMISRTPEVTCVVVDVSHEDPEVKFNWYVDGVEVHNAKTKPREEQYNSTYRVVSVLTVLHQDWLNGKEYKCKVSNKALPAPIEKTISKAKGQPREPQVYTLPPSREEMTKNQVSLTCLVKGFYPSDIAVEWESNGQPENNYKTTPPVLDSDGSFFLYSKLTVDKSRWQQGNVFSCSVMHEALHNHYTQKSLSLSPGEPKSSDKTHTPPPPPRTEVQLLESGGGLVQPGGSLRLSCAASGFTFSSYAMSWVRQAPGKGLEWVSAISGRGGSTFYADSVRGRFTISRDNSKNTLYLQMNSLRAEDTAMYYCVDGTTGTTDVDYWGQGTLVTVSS
notes: Structure 1, IgG-VH; PSMA Fab from PR001331, OX40 VH from PR002067; linker H1_15-RT; human IgG1 (LALA); also called PSMA×OX40 bispecific antibody molecule

From US20230303698A1 (HARBOUR BIOMED SHANGHAI, published 2023)
